Measured values taken from patent US20170130205A1, “METHOD FOR PREPARING INDUCED PLURIPOTENT STEM CELLS” (TAIPEI VETERANS GENERAL HOSPITAL, priority 2014, published 2017).

Tests used:
Assay type in all cases: cell-based, human
[1] = system: ESC-CMs, Ctrl-iPSC-CMs; assay: Alox12/Alox15 protein expression on Gb3 treatment (Western blot, immunofluorescence), control cells; conditions: post-induction day 20, Gb3 15 μmole/L, 24 hours
Experimental: (§1) The extraction of proteins from cells and western blot analysis were performed as described previously (Yang et al., Inhibition of cancer stem cell-like properties and reduced chemoradioresistance of glioblastoma using microrna145 with cationic polyurethane-short branch pei. Biomaterials. 2012; 33:1462-1476). Whole cell lysates were separated by electrophoresis on 12% SDS-PAGE and transferred to a polyvinylidene fluoride membrane. The membranes were blocked with 5% nonfat milk at room temperature for 1 hour. The blots were incubated with primary antibodies in TBST buffer containing 3% nonfat milk at 4° C. overnight and subsequently with secondary antibodies conjugated with peroxidase at 25° C. for 1 hour. The immunoblots were developed using an enhanced chemiluminescence system, and the luminescence was visualized on X-ray film.
(§2) The living cells and spheres were fixed in 4% paraformaldehyde, permeabilized in 0.1% Triton X-100, and blocked in 5% normal goat serum in PBS. […] The total amount of retained autofluorescent material was determined in the red (546) and green (488) channels by quantifying the pixel area (Adobe Photoshop/Image J software). The cellular area contents of the normal iPSC-CMs and the FD-iPSC-CMs were quantified using the ImageJ software package (National Institutes of Health, Bethesda, MD).

[2] = system: Ctrl-iPSC-CMs or ESC-CMs; assay: ELISA of 12-HETE/15-HETE secretion into conditioned medium on Gb3 treatment, control cells; conditions: Gb3 15 μmole/L, 24 hours
[3] = system: FD-iPSC-CMs; assay: ELISA of 12-HETE/15-HETE secretion into conditioned medium on Gb3 treatment, Fabry cells; conditions: FD-iPSC-CMs (Pt1 to Pt8); Gb3 15 μmole/L, 24 hours
[4] = system: FD-iPSC-CMs; assay: Alox12/Alox15 protein expression on Gb3 treatment (Western blot, immunofluorescence), Fabry cells; conditions: FD-iPSC-CMs (Pt1 to Pt8), post-induction day 20; Gb3 15 μmole/L, 24 hours; vs ESC-CMs and Ctrl-iPSC-CMs
Experimental: as §1, §2

[5] = system: FD-iPSC-CMs; assay: MED64 multi-electrode field potential recording of beating iPSC-derived cardiomyocytes (Fabry); conditions: post-induction day 60
Experimental: (§3) The recording area of probes with 64 recording electrodes (MED probe; MED-P515A, Alpha Med Scientific, Osaka) for the MED64 System (Alpha Med Scientific) was coated with 2 ml of 0.1% gelatin that had been incubated at 37° C. for 1 hour. Beating iPSC-derived CMs were transferred onto the MED-probe dishes, and the electrical potentials were recorded with the MED64 multi-electrode array system. […] To evaluate the compounds, a cluster was treated with a compound in stepwise concentration increments. The medium was perfused at 1.7 ml/min at 37° C., and the field potentials were measured for 5 min.

[6] = system: Ctrl-iPSC-CMs; assay: MED64 multi-electrode field potential recording of beating iPSC-derived cardiomyocytes (control); conditions: post-induction day 60, isoproterenol 0, 1, 10 μM
Experimental: as §3

[7] = system: FC-iPSC-CMs; assay: Secreted levels of LysoGb3, 12(S)-HETE and 15(S)-HETE from FC-iPSC-CMs
Experimental: For liquid chromatography for lysoGb3 and Gb3 analysis, we used Waters Alliance 2795XE HPLC system to perform stepwise gradient elution. The flow rate was 0.3 mL/min in lysoGb3 or Gb3 experiment. Mass spectrometry of lysoGb3 and Gb3 detection was performed in positive ion mode (ES+) on a triple quadruplemass spectrometer (Quattro Ultima, Waters, Milford, Mass.) with NeoLynx software version 4.1. The analyzing methods were modified from the protocol provided by Shire Human Genetic Therapies. LC-MS/MS analysis was performed using an LTQ Orbitrap (Thermo Fisher Scientific) as described previously.
Whole blood samples were collected into 1.8 mg/ml EDTA-K3 tubes and centrifuged at 2500×g for 20 min at room temperature to obtain the plasma samples. The aliquots were stored at −80° C. until use. Enzyme-linked immunoassays (ELISAs) were used for 15(S) HETE (Cayman Chemicals) and 12(S) HETE (Detroit R&D) quantification according to the manufacturers' instructions (Detroit R&D).
(§4) However, the interrelationship between treatment onset and the efficacy of ERT drugs in FC with fibrotic progression remains unclear. Therefore, we compared the treatment efficacy of GLA between early (5 μg/ml of GLA from day 20 to day 60 post-differentiation; FIG. 13C) and late (5 μg/ml of GLA from day 40 to day 60 post-differentiation; FIG. 13D) administrations in FC-iPSC-CMs, and evaluated the levels of cardiac Alox12/15 and fibrotic markers at day 60 post-differentiation. […] We therefore tested the treatment efficacy of the pharmacological inhibition of cardiac Alox12/15 in combination with ERT (FIG. 15).

[8] = system: FC-iPSC-CMs; assay: Cell size of FC-iPSC-CMs by quantification of cTnT-positive margins; conditions: early-administration: 5 μg/ml GLA day 20 to day 60
Experimental: (§5) The living cells and spheres were fixed in 4% paraformaldehyde, permeabilized in 0.1% Triton X-100, and blocked in 5% normal goat serum in PBS. After being washed three times with PBS, the cells were incubated with goat anti-mouse secondary antibodies conjugated with FITC (green) or PE (red). DAPI (blue) was used as the nuclear stain. Labeled cells were imaged with a laser-scanning confocal microscope (Olympus). The total amount of retained autofluorescent material was determined in the red (546) and green (488) channels by quantifying the pixel area (Adobe Photoshop/Image J software). The cellular area contents of the normal iPSC-CMs and the FD-iPSC-CMs were quantified using the ImageJ software package (National Institutes of Health, Bethesda, MD).
as §4

[9] = system: ESC-CMs, Ctrl-iPSC-CMs, FC-iPSC-CMs; assay: GLA enzyme activity in cardiomyocytes with administration of GLA; conditions: day 20 post-induction; GLA 5 μg/ml for 5 days; all experimental cells
Experimental: Cells were washed twice with PBS, incubated in 200 μl of fresh medium at 37° C. and 5% CO2 for 2 hours, and washed twice with PBS. Afterward, the cells were lysed in 60 μl of Lysis Buffer (27 mM of sodium citrate, 46 mM of sodium phosphate dibasic, 0.5% Triton X-100, pH 4.6). Lysates (10 μl) were added to 50 μl of Assay Buffer (Lysis Buffer without Triton X-100) containing 6 mM of 4-MUG and 117 mM of N-acetyl-D-galactosamine (GalNac, an inhibitor of -N-acetylgalactosaminidase, which is a lysosomal enzyme present in cell lysates that hydrolyzes 4-MUG) and incubated at 37° C. for 1 hour. The Stop Solution (0.4 M glycine, pH 10.8; 70 μl) was added, and the fluorescence was read on a Victor plate reader (Perkin-Elmer, Waltham, Mass.) at 355 nm excitation and 460 nm emission. A Micro BCA Protein Assay Kit (Pierce, Rockford, Ill.) was used according to the manufacturer's instructions to determine the protein concentration from 40 μl of cell lysate from each well. The total protein amount in each well was used to normalize the enzyme activity. A 4-methylumbelliferone (4-MU) standard curve ranging from 1.3 nM to 30 μM was run in parallel to calculate the absolute -Gal A activity, expressed as nmol of 4-MU released/mg protein/hour (nmol/mg protein/hour), which was normalized to the percentage of the untreated wild-type (% WT) enzyme activity. […]

[10] = system: FC-iPSC-CMs; assay: Immunofluorescence of Alox12/15 and fibrotic markers in FC-iPSC-CMs under ERT; conditions: read at day 60
Experimental: as §5, §4

[11] = early-administration of GLA, day 60, vs untreated cells
[12] = late-administration of GLA, day 60

## globotriaosylceramide [Gb3]
[1]
  Alox12 and Alox15 protein expression: increased
[2]
  secretion of 12-HETE/15-HETE: mildly increase
[3]
  secretion of 12-HETE and 15-HETE: largely stimulated
[4]
  Alox12/Alox15 protein expression: upregulation of Alox12/Alox15 at higher magnitudes

## CC(C)NCC(O)c1ccc(O)c(O)c1 (stereo not shown) [Isoproterenol, isoproterenol]
[5]
  electrophysiological response (beating frequency) to the drug: random occurrences of arrhythmias
[6]
  effect on beating frequency of contractile colonies: dose-dependent chronotropic effect

B1: α-galactosidase A (protein, UniProt P06280 32-429, looked up)
Alpha-galactosidase A: LDNGLARTPTMGWLHWERFMCNLDCQEEPDSCISEKLFMEMAELMVSEGWKDAGYEYLCIDDCWMAPQRDSEGRLQADPQRFPHGIRQLANYVHSKGLKLGIYADVGNKTCAGFPGSFGYYDIDAQTFADWGVDLLKFDGCYCDSLENLADGYKHMSLALNRTGRSIVYSCEWPLYMWPFQKPNYTEIRQYCNHWRNFADIDDSWKSIKSILDWTSFNQERIVDVAGPGGWNDPDMLVIGNFGLSWNQQVTQMALWAIMAAPLFMSNDLRHISPQAKALLQDKDVIAINQDPLGKQGYQLRQGDNFEVWERPLSGLAWAVAMINRQEIGGPRSYTIAVASLGKGVACNPACFITQLLPVKRKLGFYEWTSRLRSHINPTGTVLLQLENTMQMSLKDLL
notes: enzyme used as enzyme replacement therapy (ERT) in the FC-iPSC-CM platform
[7]; [11]
  secreted level of 12-HETE: significantly suppressed
  secreted level of 15-HETE: significantly suppressed
  secreted level of lysoGb3: significantly suppressed
[7]; [12]
  secreted level of lysoGb3: significant reduction
  secretion of 12(S)-HETE: negligible inhibitory effect
  secretion of 15(S)-HETE: negligible inhibitory effect
[8]
  cell size of FC-iPSC-CMs: prominently reduced
[9]
  GLA activity in cells: elicited high GLA activity
[10]; early-administration: 5 μg/ml GLA day 20 to day 60
  expression levels of Alox12/15 and fibrotic biomarkers MMP1, TGF-β and collagen1: suppressed
[10]; late-administration: 5 μg/ml GLA day 40 to day 60
  fibrotic protein expression: negligible inhibitory effect
